Experimental data taken from US20210246195A1 (CZ BIOHUB SF, published 2021).
Substitutions are numbered along the chain they refer to.

T1: purified recombinant allergen Aspergillus fumigatus 1 (rAsp f 1) (Aspergillus fumigatus, UniProt P67875 28-176)
T1 sequence: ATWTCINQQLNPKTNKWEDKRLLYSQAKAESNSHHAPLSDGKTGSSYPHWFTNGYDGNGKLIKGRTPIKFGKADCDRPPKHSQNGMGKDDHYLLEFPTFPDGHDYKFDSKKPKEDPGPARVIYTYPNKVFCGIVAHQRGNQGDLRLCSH

T2: Ara h 1 (purified natural peanut allergen) (Arachis hypogaea, UniProt P43238 26-626)
T2 construct: mature; bought natural protein; also called natural Ara h 1; NA-AH1-1
T2 sequence (looked up): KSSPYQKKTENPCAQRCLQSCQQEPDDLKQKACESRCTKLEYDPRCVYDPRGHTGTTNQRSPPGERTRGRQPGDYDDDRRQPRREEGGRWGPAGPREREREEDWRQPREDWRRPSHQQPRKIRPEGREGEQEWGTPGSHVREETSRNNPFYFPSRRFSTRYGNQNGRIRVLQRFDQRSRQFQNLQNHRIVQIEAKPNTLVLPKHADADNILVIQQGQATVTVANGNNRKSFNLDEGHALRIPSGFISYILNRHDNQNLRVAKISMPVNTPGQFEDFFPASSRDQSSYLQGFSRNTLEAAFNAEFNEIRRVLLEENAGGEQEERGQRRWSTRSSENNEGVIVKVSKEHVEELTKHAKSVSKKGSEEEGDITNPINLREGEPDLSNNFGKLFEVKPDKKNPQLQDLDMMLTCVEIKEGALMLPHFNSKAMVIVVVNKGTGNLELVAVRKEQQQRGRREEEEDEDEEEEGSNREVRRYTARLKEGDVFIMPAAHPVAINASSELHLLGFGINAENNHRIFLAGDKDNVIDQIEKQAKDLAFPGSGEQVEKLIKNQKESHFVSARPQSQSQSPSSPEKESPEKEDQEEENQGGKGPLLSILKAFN

B1: 1003320107_F3 (antibody, V domains shown)
VH: QVQLQESGPGLVKPSETLSLSCNVSGGSIRGHYWSWIRQSPGKRLEWLGYIYQSGYTKYNPSLKSRVSISLDTSKNKFSLNLKSVTTADTAVYYCAGRVAERGGDQFDFWGQGTLVTVSS
VL: SYELTQSPSLSVSPGQTASITCSGENLGEKHASWYQQKSGQSPVLVIYQDTKRPAGIPERFSGSNSGSTATLTISGTQPMDEADYFCQAWDANTANVIFGGGTMLTVL
notes: also called Clone 1003320107_F3
B2: 1003320101_D6 (antibody, V domains shown)
VH: EVQLVASGGGLIHPGGSLRLSCEASGFSFSRFWMYWVRQSPGEGLVWVARLSGDGTVTNYADSMEGRVTISRDNVKNTLFLEMNSLREGDTGIYYCARKDCPSLSCQLDYWGQGVQVTVSS
VL: QSVLTQPPSVSAAPGQKVTISCSGSTSNIGKNYVSWYQHFPGAAPKLLIFDNDKRPSGIPDRFSGSRSGTSATLDITGLQTGDEADYFCATWDSRLSADVFGSGTTVSVL
notes: also called Clone 1003320101_D6
B3: 1003320105_D6 (antibody, V domains shown)
VH: EVQLLESGGGLVQPGGSLRLSCAASGFNFSNFAVSWVRQTPGKGLEWVSAILGSRSVTYYADSVKGRFTISRDKSKNALYLQMDSLRAEDTAIYYCAKLFFMPYSHDDSGDYWGQGTLVAVSS
VL: QLVLTQSPSASASLGASVKLTCTLSSDHRSYAIAWHQQQPGKGPRYLMKVNRDGSHIKGDGIPHRFSGSSSVTERYLIISSLQSEDEADYYCQSWDTGIQVFGGGTRLTVV
notes: also called Clone 1003320105_D6
B4: 1003320107_F8 (antibody, V domains shown)
VH: EVQLVESGGGLVQPGGSLKLSCAASGFTFSGSTIHWVRQTSGKGLEWVGRIGSKATSYATAYAASVKGRFTISRDDSKNTAYLQMNSLKTEDTAVYFCTRRYYDTTKSVLVVSDSWGQGTLVTVSS
VL: SYELTQPPSMSVSPGQTARITCSGDVLAKQFAYWYQQKPGQAPVLVIYKDSERPSGIPERFSGSSSGTIITLTISGVQAEDEADYYCQSADSSGTSWVFGGGTKLTVL
notes: also called Clone 1003320107_F8
B5: PA13P1H08 variant with native heavy chain and light chain swapped with another kappa light chain (antibody, human IgG1, V domains shown)
VH: QVQLVNSGGGVVQPGRSLRLSCVASGFTFSTFGIHWVRQAPGKGLEWVAVISNDGEKSESADSVKGRFTPSRDNSKNTVYLQMNNLRVEDTAVYYCAKVLDYSRYSYYYGMDVWGQGTTVIVSS
VL: EIVLTQSPATLSLSPGERATLSCRASQSVSSYLAWYQQKPGQAPRLLIYDASNRATGIPARFSGSGSGTDFTLTISSLEPEDFAVYYCQQRSNWPPGFTFGPGTKVDIK
notes: human IgG1, kappa
B6: PA12P3F10 (antibody, human IgG1, V domains shown)
VH: QVQLVESGGGVVQPGGSLTLSCVGSGFTFSHYAIHWVRQAPGKGLEWVAVISNVGTTRDYADSLKGRLTISRENSQSTVFLQMNSLRADDTAIYYCAKVLDYSEFHYYYGLDVWGQGTAVAVSS
VL: EIVLTQSPGTLSLSPGQRVTLSCRVSQAIPTMYVAWYQQRPGQAPRLLIYGTSSRATGIPDRFSGGGSGTDFTLTINRLEPEDIAVYYCQHYSNSPPYTFGPGTKLEIK
notes: human IgG1, kappa
B7: PA13P1E10 (antibody, human IgG1, V domains shown)
VH: QVQLVDSGGGVVQPGKSLRLSCVGSGFTFRTFGIHWVRQAPGKGLEWVAVISNDGGNSASADSVKGRFTTSRDNSKNTVYLQINSLRPEDTAIYYCAKVLDYSAFSYYYGMDVWGQGTTVIVSS
VL: EIVLTQSPGTLSLSPGERGTLSCRTSQPISRAHLAWYQHKAGQAPRLLIYGSTERAAGIPERFSGGGSGSDFTLTISSLEAEDFAVYYCQHYGRSPPYTFGQGTKVEIK
notes: human IgG1, kappa
B8: PA12P3D08 (antibody, human IgG1, V domains shown)
VH: QVQLVESGGGVVQPGKSLRLSCAASAFTFRRFAMHWVRQAPGKGLEWVAVISDNGLREDYEDSVKGRFTISRDNSQNTLYLQMNGLRAEDTAVYYCAKVLDYNEYSLYFGMDVWGQGTTVTVSS
VL: EVVLTQSPATLSLSPGERATLSCRTSQAISNNFLAWYQQRPGQPPRLLIYASSRRATDTPDRFTGSGSGTDFTLTITRLEPEDFAVYFCQYYSDSPPYTFGPGTKLEIK
notes: human IgG1, kappa
B9: PA12P1C07 (antibody, human IgG1, V domains shown)
VH: B8 VH with V5E, A23V, R30K, Q76K, N77D, G85S, A88P, V93I, N103S, T121L
VL: EIVLTQSPAILSLSPGDRATLSCRTSQTVNSNFLAWYQQKPGQAPRLLIYGASRRAIDIPDRFTGSGSGTEFTLTIARLEPEDFAVYSCQHYSDSPPYTFGQGTKLEIK
notes: human IgG1, kappa
B10: PA13P1H08 variant rCDR1-N (antibody, human IgG1, V domains shown)
VH: B5 VH with T31S, F32Y
VL: EIVLTQSPGTLSLSPGGRGTLSCRTSQTINNAHLAWYQHKPGQAPRLLIYGSSERATGVPDRFSGSGSGSDFTLTISSLEAEDFAVYYCQHYGRSPPYTFGPGTKLDIK
notes: human IgG1, kappa; also called heavy chain CDR1 reverted
B11: PA13P1H08 variant R-N (antibody, human IgG1, V domains shown)
VH: QVQLVESGGGVVQPGRSLRLSCAASGFTFSSYGMHWVRQAPGKGLEWVAVISYDGSNKYYADSVKGRFTISRDNSKNTLYLQMNSLRAEDTAVYYCAKVLDYSNYYYYYGMDVWGQGTTVTVSS
VL: B10 VL
notes: human IgG1, kappa; also called reverted heavy chain, native light chain
B12: PA13P1H08 variant rFWRs-N (antibody, human IgG1, V domains shown)
VH: B11 VH with S31T, Y32F, Y53N, S56E, N57K, K58S, N104R, Y106S
VL: B10 VL
notes: human IgG1, kappa; also called heavy chain framework regions reverted
B13: PA13P1H08 variant rCDR2-N (antibody, human IgG1, V domains shown)
VH: B5 VH with N53Y, E56S, K57N, S58K
VL: B10 VL
notes: human IgG1, kappa; also called heavy chain CDR2 reverted
B14: PA13P1H08 variant rCDR3-N (antibody, human IgG1, V domains shown)
VH: B5 VH with R104N, S106Y
VL: B10 VL
notes: human IgG1, kappa; also called heavy chain CDR3 reverted
B15: PA13P3G09 (antibody, human IgG1, V domains shown)
VH: QEQLVESGGGVVHPGGSLRLSCVASAFTFNRFGMHWVRQAPGKGLEWVAVISNDGRSQDYADSVKGRFIISRDNSKNTLYLQLNSLRFEDTAVYYCAKVLDYSIFYYYFGLDVWGQGTTVTVSS
VL: EVVLTQSPGSLSLSPGERATLSCRAGQSLSSKFLAWYQHKPGQAPRLLIYGASTRATGVPDRFSGSGSGTDFSLIISRVEPEDFAVYYCQHYGDSPPYTFGQGTKVEMK
notes: human IgG1, kappa
B16: PA13P1H03 (antibody, human IgG1, V domains shown)
VH: EVQLVESGGGLVQPGGSLRLSCAASGFTFRNYWMNWVRQAPGKGLVWVSRINSEGSSTSYADPVKGRFTISRDNAKDTLYLQMDSLRAEDSAVYYCARIFNGYIHVGRDYWGQGTRVTVSS
VL: DIQMTQSPSTLSASIGDRVTITCRASESISNWLAWFQQKPGKAPKLLIYKASNLESGVPSRFSGSGSGTEFTLTISSLQPDDFATYYCQQYNSNSQTFGQGTKLDLK
notes: human IgG1
B17: PA12P1G11 (antibody, human IgG1, V domains shown)
VH: QVQLVQSGAEVRKPGSSVKVSCKASGGTFSNNPITWVRQAPGQGLEWMGWIIPIFNTTNYAQKFQGRVTITADESTSTAYMELSSLKSEDTALFYCARDRAHAYCNNGVCYTTDAFDVWGQGTLVTVSS
VL: ETVLTQSPATLSLSPGERATLSCRASQSVGRYLAWYQHKPGQAPRLLIYDASNRATGIPARFSGSGSGTDFTLTISSLEPEDSAVYYCQQGTDWLTFGGGTKVEIK
notes: human IgG1

target: T1, purified recombinant allergen …; test: indirect ELISA (FIG. 19)

Binder	binding result
B1	binds

target: T1, purified recombinant allergen …; test: indirect ELISA, OD heat map

Binder	binding result
B2	no binding (tested: 2 ng/µL)
B3	no binding (tested: 2 ng/µL)
B4	no binding (tested: 2 ng/µL)

target: T3, BSA (UniProt P02769 25-607); test: indirect ELISA, OD heat map
T3 construct: also called bovine serum albumin; immobilized BSA
T3 sequence (P02769 25-607 limits assumed): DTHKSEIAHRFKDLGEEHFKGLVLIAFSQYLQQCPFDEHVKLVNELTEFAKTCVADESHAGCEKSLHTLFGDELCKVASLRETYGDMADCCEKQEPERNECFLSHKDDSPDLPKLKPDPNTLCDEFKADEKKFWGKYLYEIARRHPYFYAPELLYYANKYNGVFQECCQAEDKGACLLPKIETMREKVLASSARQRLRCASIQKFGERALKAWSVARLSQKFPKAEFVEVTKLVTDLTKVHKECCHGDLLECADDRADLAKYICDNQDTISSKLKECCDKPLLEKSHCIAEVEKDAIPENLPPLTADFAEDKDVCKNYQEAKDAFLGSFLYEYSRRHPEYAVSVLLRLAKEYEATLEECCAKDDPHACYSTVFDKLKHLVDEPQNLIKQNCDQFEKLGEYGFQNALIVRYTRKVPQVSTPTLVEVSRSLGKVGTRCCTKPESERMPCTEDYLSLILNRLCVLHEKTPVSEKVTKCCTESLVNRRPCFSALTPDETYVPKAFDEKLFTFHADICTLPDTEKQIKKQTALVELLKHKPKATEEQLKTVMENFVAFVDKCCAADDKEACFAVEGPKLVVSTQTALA

Binder	binding result
B2	no binding (tested: 2 ng/µL)
B1	no binding (tested: 2 ng/µL)
B3	no binding (tested: 2 ng/µL)
B4	no binding (tested: 2 ng/µL)

target: T2, Ara h 1 (purified natural peanut …); test: indirect ELISA, OD heat map

Binder	binding result
B5	no binding (tested: 2 ng/µL)

target: T3, BSA; test: indirect ELISA, OD heat map; remark: another data set of the same source

Binder	binding result
B6	no binding (tested: 2 ng/µL)
B7	no binding (tested: 2 ng/µL)
B8	no binding (tested: 2 ng/µL)
B9	no binding (tested: 2 ng/µL)
B10	no binding (tested: 2 ng/µL)
B5	no binding (tested: 2 ng/µL)
B11	no binding (tested: 2 ng/µL)
B12	no binding (tested: 2 ng/µL)
B13	no binding (tested: 2 ng/µL)
B14	no binding (tested: 2 ng/µL)
B15	no binding (tested: 2 ng/µL)

target: T3, BSA; test: indirect ELISA heat map, hIgG subtracted

Binder	binding result
B16	no binding (tested: 2 ng/µL)
B17	no binding (tested: 2 ng/µL)

target: T4, Ara h 3 (purified natural peanut allergen) (Arachis hypogaea); test: BLI, antibody on anti-human IgG Fc sensors, Ara h 3 as analyte, top 32 nM
T4 construct: mature; bought natural protein; also called natural Ara h 3; NA-AH3-1
T4 sequence (main, as listed by the source): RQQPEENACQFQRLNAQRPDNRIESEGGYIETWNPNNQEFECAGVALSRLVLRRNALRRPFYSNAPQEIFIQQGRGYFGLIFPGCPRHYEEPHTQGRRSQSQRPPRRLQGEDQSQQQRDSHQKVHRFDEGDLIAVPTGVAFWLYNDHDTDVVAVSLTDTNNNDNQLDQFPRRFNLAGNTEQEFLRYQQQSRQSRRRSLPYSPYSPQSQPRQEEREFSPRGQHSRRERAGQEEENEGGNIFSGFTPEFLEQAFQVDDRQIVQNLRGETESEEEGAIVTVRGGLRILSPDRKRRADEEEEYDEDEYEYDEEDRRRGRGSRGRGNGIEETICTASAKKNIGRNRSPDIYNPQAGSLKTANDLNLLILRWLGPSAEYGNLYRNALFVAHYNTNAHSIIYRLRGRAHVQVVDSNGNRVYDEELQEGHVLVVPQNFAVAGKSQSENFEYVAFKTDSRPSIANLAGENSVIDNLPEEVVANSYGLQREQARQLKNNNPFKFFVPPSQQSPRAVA

Binder	Kd [nM]
B6	11
B7	5
B8	22
B9	11
B15	19

target: T4, Ara h 3 (purified natural peanut …); test: BLI, antibody on anti-human IgG Fc sensors, Ara h 3 as analyte, top 16 nM

Binder	Kd [nM]
B10	0.5
B13	0.0042
B14	0.29

target: T4, Ara h 3 (purified natural peanut …); test: BLI, antibody on anti-human IgG Fc sensors, Ara h 3 as analyte, top 32 nM; remark: another data set of the same source

Binder	Kd [nM]
B11	0.89
B12	3.2
